25 sequences from the supplement of paper PMC9233669 can be followed below.

The test system of one data set is biotinyl-Phe-oxazolone. Nature of the data set: self-aminoacylation, catalytic enhancement (BFO) (fold over background); higher = more active; k-Seq, kA / k0A0; sequences stand for … in GGGAAUGGAUCCACAUCUACGAAUUC…UUCACUGCAGACUUGACGAAGCUG
The gist of the method:
(§1)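 Mutagenized RNA pools with a 21-nt variable region (0.43 μM) reacted with each biotinyl-aminoacyl-oxazolone at 2–1250 μM. Reactions ran in 50 μL HEPES/NaCl/KCl/MgCl2/CaCl2 buffer with 5% acetonitrile, pH 6.9–7.0, for 90 minutes at room temperature. Streptavidin-captured RNA was quantified by triplicate qPCR and Illumina sequencing, and per-sequence fraction reacted was fit to a pseudo-first-order model with 1000 bootstraps. Catalytic enhancement is median kA divided by the uncatalyzed rate, the low-activity peak of a bimodal Gaussian fit.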

A further data set relates to biotinyl-Ile-oxazolone. Description: self-aminoacylation, catalytic enhancement (BIO) (fold over background); higher = more active; k-Seq, kA / k0A0; sequences stand for … in GGGAAUGGAUCCACAUCUACGAAUUC…UUCACUGCAGACUUGACGAAGCUG
The gist of the method: as §1

In a further data set the test system is biotinyl-Met-oxazolone. Description: self-aminoacylation, catalytic enhancement (BMO) (fold over background); higher = more active; k-Seq, kA / k0A0; sequences stand for … in GGGAAUGGAUCCACAUCUACGAAUUC…UUCACUGCAGACUUGACGAAGCUG
An outline of the steps: as §1

The test system of the next data set is biotinyl-Val-oxazolone. Description: self-aminoacylation, catalytic enhancement (BVO) (fold over background); higher = more active; k-Seq, kA / k0A0; sequences stand for … in GGGAAUGGAUCCACAUCUACGAAUUC…UUCACUGCAGACUUGACGAAGCUG
An outline of the steps: as §1

The subject of another data set is biotinyl-Leu-oxazolone. Nature of the data set: self-aminoacylation, catalytic enhancement (BLO) (fold over background); higher = more active; k-Seq, kA / k0A0; sequences stand for … in GGGAAUGGAUCCACAUCUACGAAUUC…UUCACUGCAGACUUGACGAAGCUG
An outline of the steps:
as §1

For another data set, the system named is biotinyl-Trp-oxazolone. Description: self-aminoacylation, catalytic enhancement (BWO) (fold over background); higher = more active; k-Seq, kA / k0A0; sequences stand for … in GGGAAUGGAUCCACAUCUACGAAUUC…UUCACUGCAGACUUGACGAAGCUG
An outline of the steps: as §1

Variants at the floor of the assay were thinned out.

As to “CCACAAUUCAAGCAAUCGGUU [Fam1B.1 aminoacylation ribozyme variant]”, the self-aminoacylation worked out at 1.16 with biotinyl-Phe-oxazolone; 1.68 in the data set with biotinyl-Ile-oxazolone; 1.76 in the data set with biotinyl-Met-oxazolone; 1.65 in the data set with biotinyl-Val-oxazolone; 1.39 in the data set with biotinyl-Leu-oxazolone; 1.55 with biotinyl-Trp-oxazolone.

“AUUACCCUGGUCAUCGUUUGA [Fam2.1 aminoacylation ribozyme variant]”: the self-aminoacylation in the data set on biotinyl-Phe-oxazolone was 0.693; in the data set with biotinyl-Ile-oxazolone it was 0.923; with biotinyl-Met-oxazolone, 0.71; in the data set on biotinyl-Val-oxazolone, 0.821; in the data set with biotinyl-Leu-oxazolone, 0.963; in the data set on biotinyl-Trp-oxazolone, 0.734.

“AAGUCUGCCAAUAGUCGCAAG [Fam3.1 aminoacylation ribozyme variant]”: the self-aminoacylation in the data set with biotinyl-Phe-oxazolone was determined as 1.53; with biotinyl-Ile-oxazolone, 1.18; in the data set on biotinyl-Met-oxazolone it was 1.84; in the data set with biotinyl-Val-oxazolone it was 1.06; with biotinyl-Leu-oxazolone it was 0.879; in the data set on biotinyl-Trp-oxazolone it was 1.28.

As for “CCACUUCAAGCAAUCGGUCUG [Fam1A.1 aminoacylation ribozyme variant]”, the self-aminoacylation was determined as 18.6 with biotinyl-Phe-oxazolone; 1.23 in the data set on biotinyl-Ile-oxazolone; 1.15 with biotinyl-Met-oxazolone; 1.28 with biotinyl-Val-oxazolone; 1.22 in the data set on biotinyl-Leu-oxazolone; 11.8 in the data set on biotinyl-Trp-oxazolone.

“AAGCUUGCUAAUAGUCGUAAG [Fam3.1 aminoacylation ribozyme variant]”: the self-aminoacylation was found to be 8.49 in the data set on biotinyl-Phe-oxazolone; 1.26 with biotinyl-Ile-oxazolone; 1.12 in the data set with biotinyl-Met-oxazolone; 1.48 in the data set on biotinyl-Val-oxazolone; 0.843 in the data set on biotinyl-Leu-oxazolone; 2.69 in the data set on biotinyl-Trp-oxazolone.

As to “AUUGCCCUGGUCAUCGAAUGA [Fam2.1 aminoacylation ribozyme variant]”, the self-aminoacylation stood at 0.641 in the data set on biotinyl-Phe-oxazolone; 1.05 in the data set with biotinyl-Ile-oxazolone; 1.29 in the data set with biotinyl-Met-oxazolone; 1.29 in the data set with biotinyl-Val-oxazolone; 1.34 in the data set with biotinyl-Leu-oxazolone; 0.773 in the data set on biotinyl-Trp-oxazolone.

Turning to “CUACAUCAAACAAUCGGUUUG [Fam1A.1 aminoacylation ribozyme variant]”, the self-aminoacylation with biotinyl-Phe-oxazolone amounted to 1.9; in the data set with biotinyl-Ile-oxazolone, 0.906; with biotinyl-Met-oxazolone, 0.646; in the data set with biotinyl-Val-oxazolone, 0.821; in the data set on biotinyl-Leu-oxazolone, 0.781; in the data set with biotinyl-Trp-oxazolone, 1.05.

As for “AAUACCCUGGUCAUCGAGUAA [Fam2.1 aminoacylation ribozyme variant]”, the self-aminoacylation in the data set on biotinyl-Phe-oxazolone was 3.36; in the data set with biotinyl-Ile-oxazolone, 1.41; with biotinyl-Met-oxazolone it was 1.51; in the data set with biotinyl-Val-oxazolone it was 1.54; in the data set on biotinyl-Leu-oxazolone, 1.93; with biotinyl-Trp-oxazolone, 1.32.

For the sequence “CUAGUUGAAACAAUCGGUCUG [Fam1A.1 aminoacylation ribozyme variant]”, the self-aminoacylation in the data set with biotinyl-Phe-oxazolone amounted to 0.861; in the data set on biotinyl-Ile-oxazolone it was 0.923; in the data set with biotinyl-Met-oxazolone, 0.974; in the data set with biotinyl-Val-oxazolone, 0.828; in the data set with biotinyl-Leu-oxazolone, 0.841; in the data set on biotinyl-Trp-oxazolone it was 0.834.

As for “AGGUUGGCUAAUAGUCGCAAG [Fam3.1 aminoacylation ribozyme variant]”, the self-aminoacylation in the data set with biotinyl-Phe-oxazolone came out at 2.19; with biotinyl-Ile-oxazolone it was 1.74; with biotinyl-Met-oxazolone, 1.97; in the data set with biotinyl-Val-oxazolone it was 1.7; with biotinyl-Leu-oxazolone, 1.88; in the data set with biotinyl-Trp-oxazolone, 2.29.

For “AUUACCCUGUUCAACGAGUGA [Fam2.1 aminoacylation ribozyme variant]”, the self-aminoacylation amounted to 57 in the data set with biotinyl-Phe-oxazolone; 5.25 with biotinyl-Ile-oxazolone; 11.2 with biotinyl-Met-oxazolone; 5.18 in the data set on biotinyl-Val-oxazolone; 11.8 in the data set with biotinyl-Leu-oxazolone; 13.4 in the data set with biotinyl-Trp-oxazolone.

As for “AAGUGUGCUAAUAGUCGCAUG [Fam3.1 aminoacylation ribozyme variant]”, the self-aminoacylation was 1.09 with biotinyl-Phe-oxazolone; 1.38 in the data set with biotinyl-Ile-oxazolone; 1.44 in the data set with biotinyl-Met-oxazolone; 1.3 in the data set with biotinyl-Val-oxazolone; 1.86 in the data set with biotinyl-Leu-oxazolone; 1.98 with biotinyl-Trp-oxazolone.

For the sequence “CUACUACAAACACUCGGUCUG [Fam1A.1 aminoacylation ribozyme variant]”, the self-aminoacylation was determined as 0.434 with biotinyl-Phe-oxazolone; 1.08 in the data set on biotinyl-Ile-oxazolone; 0.856 with biotinyl-Met-oxazolone; 1.03 in the data set with biotinyl-Val-oxazolone; 0.902 with biotinyl-Leu-oxazolone; 0.703 in the data set on biotinyl-Trp-oxazolone.

Regarding “AAUACCUUGGUCAUCGAGUGA [Fam2.1 aminoacylation ribozyme variant]”, the self-aminoacylation stood at 7.36 in the data set with biotinyl-Phe-oxazolone; 4.23 in the data set with biotinyl-Ile-oxazolone; 6.2 in the data set with biotinyl-Met-oxazolone; 3.99 in the data set with biotinyl-Val-oxazolone; 6.66 with biotinyl-Leu-oxazolone; 7.87 with biotinyl-Trp-oxazolone.

As to “AUUACCCUGGUCAUCUAGUGG [Fam2.1 aminoacylation ribozyme variant]”, the self-aminoacylation amounted to 2.7 with biotinyl-Phe-oxazolone; 1.3 in the data set on biotinyl-Ile-oxazolone; 2.14 with biotinyl-Met-oxazolone; 1.48 in the data set with biotinyl-Val-oxazolone; 2.32 in the data set on biotinyl-Leu-oxazolone; 2.08 in the data set on biotinyl-Trp-oxazolone.

As for “ACUACCCUGGUCAUAGAGUGA [Fam2.1 aminoacylation ribozyme variant]”, the self-aminoacylation was 38.1 in the data set on biotinyl-Phe-oxazolone; 3.26 with biotinyl-Ile-oxazolone; 6.89 in the data set on biotinyl-Met-oxazolone; 3.19 with biotinyl-Val-oxazolone; 7.11 with biotinyl-Leu-oxazolone; 7.77 with biotinyl-Trp-oxazolone.

Consider “AUUACCCUGGUCUUCGAGCGA [Fam2.1 aminoacylation ribozyme variant]”, for which the self-aminoacylation in the data set with biotinyl-Phe-oxazolone is 0.753; with biotinyl-Ile-oxazolone, 0.901; in the data set on biotinyl-Met-oxazolone, 1.09; with biotinyl-Val-oxazolone it was 1.23; in the data set on biotinyl-Leu-oxazolone it was 1.11; in the data set with biotinyl-Trp-oxazolone, 1.16.

In the case of “CCACACUUCAGGCAAUCGGUG [Fam1B.1 aminoacylation ribozyme variant]”, the self-aminoacylation was found to be 36.7 with biotinyl-Phe-oxazolone; 3.23 in the data set on biotinyl-Ile-oxazolone; 5.39 in the data set with biotinyl-Met-oxazolone; 3.41 in the data set with biotinyl-Val-oxazolone; 7.5 with biotinyl-Leu-oxazolone; 4.89 in the data set on biotinyl-Trp-oxazolone.

In the case of “AUUACCCUAGUGAUCGAGUGA [Fam2.1 aminoacylation ribozyme variant]”, the self-aminoacylation in the data set on biotinyl-Phe-oxazolone is 7.82; with biotinyl-Ile-oxazolone, 1.76; with biotinyl-Met-oxazolone, 3.31; in the data set on biotinyl-Val-oxazolone it was 1.86; in the data set with biotinyl-Leu-oxazolone, 2.72; in the data set on biotinyl-Trp-oxazolone it was 3.1.

“AUUACCCUGGUCGUCGAGUGU [Fam2.1 aminoacylation ribozyme variant]”: the self-aminoacylation with biotinyl-Phe-oxazolone was 2.78; with biotinyl-Ile-oxazolone it was 1.07; in the data set on biotinyl-Met-oxazolone it was 1.39; in the data set on biotinyl-Val-oxazolone, 1.2; in the data set on biotinyl-Leu-oxazolone it was 1.08; with biotinyl-Trp-oxazolone, 1.15.

Consider “UUUCACCUUGGUCAUCGGGUG [Fam2.2 aminoacylation ribozyme variant]”, for which the self-aminoacylation was 45.4 in the data set with biotinyl-Phe-oxazolone; 4.31 in the data set with biotinyl-Ile-oxazolone; 6.53 in the data set with biotinyl-Met-oxazolone; 5.49 in the data set with biotinyl-Val-oxazolone; 5.87 in the data set with biotinyl-Leu-oxazolone; 6.96 in the data set on biotinyl-Trp-oxazolone.

As for “CUACUUCAAACUAUCAGUCUG [Fam1A.1 aminoacylation ribozyme variant]”, the self-aminoacylation with biotinyl-Phe-oxazolone is 1.25; with biotinyl-Ile-oxazolone, 1.06; in the data set with biotinyl-Met-oxazolone it was 0.975; with biotinyl-Val-oxazolone, 1.05; in the data set on biotinyl-Leu-oxazolone, 0.801; in the data set with biotinyl-Trp-oxazolone, 0.813.

For “AUUACCCGGGUCAACGAGUGA [Fam2.1 aminoacylation ribozyme variant]”, the self-aminoacylation with biotinyl-Phe-oxazolone turned out to be 63.5; in the data set with biotinyl-Ile-oxazolone, 5.11; with biotinyl-Met-oxazolone it was 9.41; with biotinyl-Val-oxazolone it was 4.94; in the data set on biotinyl-Leu-oxazolone, 9.62; in the data set on biotinyl-Trp-oxazolone, 9.96.

With “AUUACCCUUGUCCUCGAGUGA [Fam2.1 aminoacylation ribozyme variant]”, the self-aminoacylation with biotinyl-Phe-oxazolone stood at 32.2; in the data set on biotinyl-Ile-oxazolone, 2.68; with biotinyl-Met-oxazolone, 4.9; in the data set with biotinyl-Val-oxazolone it was 3.08; with biotinyl-Leu-oxazolone, 4.77; with biotinyl-Trp-oxazolone, 5.17.

As to “GAGUUUGCUAAUAGUCGCCAG [Fam3.1 aminoacylation ribozyme variant]”, the self-aminoacylation in the data set with biotinyl-Phe-oxazolone was 2.04; with biotinyl-Ile-oxazolone it was 2.51; in the data set with biotinyl-Met-oxazolone, 2.45; with biotinyl-Val-oxazolone it was 1.69; in the data set on biotinyl-Leu-oxazolone it was 1.47; with biotinyl-Trp-oxazolone, 2.6.
